In patent US20140141415A1:

Tests used:
[1] = target: GFP 1-9 OPT (Aequorea victoria); assay: split GFP complementation, sandwich format
[2] = target: sulfite reductase-GFP S11 wild type (Pyrobaculum aerophilum; Aequorea victoria); assay: split GFP complementation in vitro, soluble lysate with excess purified fusion protein

| fold increase of complementation rate compared to the starting strand construct [1] [fold] | fold improvement of in vitro complementation relative to the same amount of refolded superfolder GFP 1-10 [2] [fold] | Substance |
| --- | --- | --- |
| 20 |  | (GFP S10 SM5)-L1-sulfite reductase-L2-(GFP S11 SM5) |
|  | 80 | GFP 1-10 OPT |
